Data as given in IntAct's records for PubMed 18532879.

B1: Nuclear polyadenylated RNA-binding protein NAB2 (Saccharomyces cerevisiae), P32505 (parent)
chain: MSQEQYTENLKVIVAEKLAGIPNFNEDIKYVAEYIVLLIVNGGTVESVVDELASLFDSVSRDTLANVVQTAFFALEALQQGESAENIVSKIRMMNAQSLGQSDIAQQQQQQQQQQQPDIAQQQPQQQPQQQPQQQPQQQPQQQPQQQPQQQPQQQPQLQPLQPQLGTQNAMQTDAPATPSPISAFSGVVNAAAPPQFAPVDNSQRFTQRGGGAVGKNRRGGRGGNRGGRNNNSTRFNPLAKALGMAGESNMNFTPTKKEGRCRLFPHCPLGRSCPHAHPTKVCNEYPNCPKPPGTCEFLHPNEDEELMKEMERTREEFQKRKADLLAAKRKPVQTGIVLCKFGALCSNPSCPFGHPTPANEDAKVIDLMWCDKNLTCDNPECRKAHSSLSKIKEVKPISQKKAAPPPVEKSLEQCKFGTHCTNKRCKYRHARSHIMCREGANCTRIDCLFGHPINEDCRFGVNCKNIYCLFRHPPGRVLPEKKGAAPNSNVPTNERPFALPENAIIENAPPQTSFTHQEQDTEMN
partner: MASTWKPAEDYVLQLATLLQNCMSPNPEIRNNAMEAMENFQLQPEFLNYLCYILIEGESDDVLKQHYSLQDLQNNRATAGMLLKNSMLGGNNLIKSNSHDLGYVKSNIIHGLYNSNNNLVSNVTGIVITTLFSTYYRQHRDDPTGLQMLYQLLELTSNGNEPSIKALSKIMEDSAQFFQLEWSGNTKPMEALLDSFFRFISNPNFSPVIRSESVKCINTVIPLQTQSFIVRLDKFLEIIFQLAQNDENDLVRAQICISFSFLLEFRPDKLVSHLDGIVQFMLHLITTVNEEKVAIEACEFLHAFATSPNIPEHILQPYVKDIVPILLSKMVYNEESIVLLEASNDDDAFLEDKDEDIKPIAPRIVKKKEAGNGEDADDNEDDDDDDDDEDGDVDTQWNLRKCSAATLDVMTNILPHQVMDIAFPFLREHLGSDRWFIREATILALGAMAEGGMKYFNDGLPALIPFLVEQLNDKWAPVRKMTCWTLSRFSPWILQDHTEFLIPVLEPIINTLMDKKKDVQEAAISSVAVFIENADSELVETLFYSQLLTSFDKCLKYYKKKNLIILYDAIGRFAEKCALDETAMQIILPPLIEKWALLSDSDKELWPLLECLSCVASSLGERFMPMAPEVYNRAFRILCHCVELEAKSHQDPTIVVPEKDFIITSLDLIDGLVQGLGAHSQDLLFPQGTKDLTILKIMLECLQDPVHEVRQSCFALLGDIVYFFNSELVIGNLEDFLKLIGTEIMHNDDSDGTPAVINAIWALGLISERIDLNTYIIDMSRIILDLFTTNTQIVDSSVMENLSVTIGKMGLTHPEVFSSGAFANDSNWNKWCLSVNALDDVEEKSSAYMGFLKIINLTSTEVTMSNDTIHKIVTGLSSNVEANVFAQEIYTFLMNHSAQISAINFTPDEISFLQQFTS

Variants of: B1
Details: with imb2_yeast KAP104, P38217

Row | effect of a mutation on the interaction | Variant
1 | disrupting interaction strength | L239I
2 | disrupting interaction strength | L239P

More lines, now with the values behind:

Row | Variant | effect of a mutation on the interaction
3 | L239D | disrupting interaction strength
4 | L239E | disrupting interaction strength
5 | P238A;L239A | disrupting interaction
